Assay results reported in patent US6514938B1, “Copolymer 1 related polypeptides for use as molecular weight markers and for therapeutic use” (Yeda Research and Development Co. Ltd. at the Weizmann …, priority 1998, dated 2003).

Experiments:
[1] = system: anti-Cop-1 (3-3-9) monoclonal antibody; experiment: RIA: binding of anti-Cop 1 monoclonal antibody to coated antigen; details: for % Cop 1 binding: relative to Cop 1 reference standard 03494; for Binding of mAb cpm: wells coated with 2 μg/ml antigen, 125I-goat anti-mouse IgG bound
[2] = system: anti-Cop-1 (3-1-45) monoclonal antibody; experiment: as above; details: for % Cop 1 binding: relative to Cop 1 reference standard 03494; for Binding of mAb cpm: wells coated with 2 μg/ml antigen, 125I-goat anti-mouse IgG bound
[3] = system: anti-Cop-1 (5-7-2) monoclonal antibody; experiment: as above; details: for % Cop 1 binding: relative to Cop 1 reference standard 03494; for Binding of mAb cpm: wells coated with 2 μg/ml antigen, 125I-goat anti-mouse IgG bound
[4] = system: BALB/c-Ts-Cop-1 T cell line; experiment: Proliferation of Cop 1 specific T cell line (3H-thymidine uptake); details: for 3H-Thymidine incorporation (% Cop 1): 10 μg antigen, relative to 03494; for 3H-Thymidine incorporation cpm: cultured with 10 μg antigen
L-22-1 T cell clone = experiment: as above; details: for 3H-Thymidine incorporation (% Cop 1): 10 μg antigen, relative to 03494; for 3H-Thymidine incorporation cpm: cultured with 10 μg antigen
[5] = system: SC-103 Cop 1 specific T cell clone; experiment: as above; details: for 3H-Thymidine incorporation (% Cop 1): 10 μg antigen, relative to 03494; for 3H-Thymidine incorporation cpm: cultured with 10 μg antigen
[6] = system: SC-14 Cop 1 specific T cell clone; experiment: as above; details: for 3H-Thymidine incorporation (% Cop 1): 10 μg antigen, relative to 03494; for 3H-Thymidine incorporation cpm: cultured with 10 μg antigen
[7] = system: experimental allergic encephalomyelitis (EAE) in (SJL/JxBALB/c)FI mice; experiment: Blocking of experimental allergic encephalomyelitis by injection with complete adjuvant; type: in vivo, mouse; details: for Incidence of EAE: antigen included in the encephalitogenic inoculum, animals with EAE/animals in group; for % Blocking: blocking of EAE versus control without antigen; for Mean Score: disease score 0 (healthy) to 5 (dead); for Mean Onset: animals not protected, onset = day of score of at least 1
From the text: Blocking of Experimental Allergic Encephalomyelitis—To test the physiological activity of TV-markers, protection from experimental allergic encephalomyelitis (EAE) was investigated in mice. Injection of Copolymer 1 in complete Freund's adjuvant together with the encephalitogen can block EAE essentially as described in Aharoni et al., 17 Eur. J. Immunol. 23 (1993). Other researchers have observed that the therapeutic effect of Copolymer 1 in multiple sclerosis patients is also associated with the induction of TH2 cells. Lahat et al., 244 J. Neurol. 129 (1997). In this example, EAE is blocked by different polypeptides of the present invention.
Pertussis toxin (0.25 ml, 250 ng, Sigma) is injected intravenously, immediately after and 48 hr later. […] 2156 (1979).
EAE blocking by injection with complete adjuvant—Each antigen being tested was included in the encephalitogenic inoculum. […] Also shown is the mean onset of EAE in animals which were not protected. Disease intensity is scored daily in mice with a score of zero (0=healthy) to five (5=dead).

Row | Molecule | % Cop 1 binding [1] | Binding of mAb cpm [1] | % Cop 1 binding [2] | Binding of mAb cpm [2] | % Cop 1 binding [3] | Binding of mAb cpm [3] | 3H-Thymidine incorporation (% Cop 1) [4] | 3H-Thymidine incorporation cpm [4] | 3H-Thymidine incorporation (% Cop 1) (L-22-1 T cell clone) | 3H-Thymidine incorporation cpm (L-22-1 T cell clone) | 3H-Thymidine incorporation (% Cop 1) [5] | 3H-Thymidine incorporation cpm [5] | 3H-Thymidine incorporation (% Cop 1) [6] | 3H-Thymidine incorporation cpm [6] | Incidence of EAE [7] | % Blocking [7] | Mean Score [7] | Mean Onset [7]
1 | AKKYAKKEKAYAKKAEKAAKKAEAKAYKAAEAKKKAEAKYKAEAAKAAAKEAAYEA [TV-56] | (2) % | 1614 cpm | (6) % | 1581 cpm | (91) % | 9584 cpm | (59) % | 19545 cpm | (0) % | 232 cpm | (0) % | 237 cpm | (117) % | 3495 cpm | – | – | – | –
2 | AKKYAKKEKAAKKAYKKEAKAKAAEAAAKEAAYEA [TV-35] | (0) % | 1176 cpm | (0) % | 343 cpm | (1) % | 657 cpm | (28) % | 9465 cpm | (0) % | 225 cpm | (0) % | 438 cpm | (0) % | 884 cpm | – | – | – | –
3 | AKKYAKKAKAEKAKKAYKAAEAKKAAKYEKAAAEKAAAKEAAYEA [TV-45] | – | – | – | – | – | – | – | – | – | – | – | – | – | – | 0/10 | 100% | 0 | –
4 | AKKYAKKAEKAYAKKAKAAKEKKAYAKKEAKAYKAAEAKKKAKAEAKKYAKEAAKAKKEAYKAEAKKYAKAAKAEKKEYAAAEAKKAEAAKAYKAEAAKAAAKEAAYEA (reversed-phase fraction 2 used for calibration) AKKYAKKAEKAYAKKAKAAKEKKAYAKKEAKAYKAAEAKKKAKAEAKKYAKEAAKAKKEAYKAEAKKYAKAAKAEKKEYAAAEAKKAEAAKAYKAEAAKAAAKEAAYEA | – | – | – | – | – | – | – | – | – | – | – | – | – | – | 0/10 | 100% | 0 | –
5 | AKKYAKKEKAYAKKAEKAAKKAEAKAYKAAEAKKKAKAEAKKYAKAAKAEKKEYAAAEAKYKAEAAKKAYKAEAAKAAAKEAAYEA (peptide) AKKYAKKEKAYAKKAEKAAKKAEAKAYKAAEAKKKAKAEAKKYAKAAKAEKKEYAAAEAKYKAEAAKKAYKAEAAKAAAKEAAYEA | (2) % | 1625 cpm | (6) % | 1606 cpm | (76) % | 8140 cpm | (44) % | 14694 cpm | (1) % | 418 cpm | (0) % | 298 cpm | (65) % | 2284 cpm | 3/10 | 70% | 0.7 | 12.0 days
6 | AKKYAKKEKAYAKAKKAEAKAAKKAKAEAKKYAKAAKAEKKEYAAAEAKYKAEAAKAAAKEAAYEA (peptide) AKKYAKKEKAYAKAKKAEAKAAKKAKAEAKKYAKAAKAEKKEYAAAEAKYKAEAAKAAAKEAAYEA | – | – | – | – | – | – | – | – | – | – | – | – | – | – | 6/10 | 40% | 2.8 | 11.7 days
7 | AKKYAKKEKAYAKKAEKAAKKAEAKAYKAAEAKKKAKAEAKKYAKAAKAEKKEYAAAEAKYKAEAAKAAAKEAAYEA (peptide) AKKYAKKEKAYAKKAEKAAKKAEAKAYKAAEAKKKAKAEAKKYAKAAKAEKKEYAAAEAKYKAEAAKAAAKEAAYEA | (6) % | 2265 cpm | (9) % | 2152 cpm | (37) % | 4259 cpm | (52) % | 17367 cpm | (1) % | 300 cpm | (0) % | 327 cpm | (83) % | 2701 cpm | 1/9 | 89% | 0.2 | 14.0 days
